Reference: patent US20110070184A1, “METHODS AND COMPOSITIONS FOR TREATING ATHEROSCLEROSIS AND RELATED CONDIDTIONS” (CAROLUS THERPEUTICS, INC., priority 2008, published 2011)

Experiments:
CXCR4 = CXCR4 (Homo sapiens, UniProt P61073); details: data not shown
[1] = tested on: primary CD3+ T lymphocytes; experiment: Transwell chemotaxis of primary CD3+ T cells toward MIF; format: cell-based, human; details: primary CD3+ T lymphocytes devoid of CXCR1 and CXCR2
Procedure: (§1) Chemotaxis assays. […] Pore sizes and intervals were 5 μm and 3 h (monocytes), 3 μm and 1.5 h (T cells), and […] and 1 h (neutrophils).

CXCR2 [2] = molecular target: T1, CXCR2 (Homo sapiens, UniProt P25025); experiment: Calcium mobilization in L1.2 CXCR2 transfectants (Fluo-4 AM); format: cell-based
T1 construct: expressed in transfected cells
T1 sequence (P25025 1-360): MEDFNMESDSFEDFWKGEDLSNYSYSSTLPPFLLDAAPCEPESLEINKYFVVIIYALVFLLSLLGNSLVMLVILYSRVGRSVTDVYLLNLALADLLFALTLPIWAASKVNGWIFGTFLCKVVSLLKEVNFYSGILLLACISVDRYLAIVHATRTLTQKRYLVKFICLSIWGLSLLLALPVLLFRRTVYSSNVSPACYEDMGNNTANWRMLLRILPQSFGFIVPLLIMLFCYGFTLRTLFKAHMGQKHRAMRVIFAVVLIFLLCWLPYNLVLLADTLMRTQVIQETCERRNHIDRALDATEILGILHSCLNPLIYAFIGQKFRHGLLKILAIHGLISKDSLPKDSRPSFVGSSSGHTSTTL
Excerpt: (§2) Calcium mobilization. Neutrophils or L1.2 CXCR2 transfectants were labeled with Fluo-4 AM (Molecular Probes).

[3] = tested on: primary human neutrophils; experiment: Calcium mobilization in neutrophils (Fluo-4 AM); format: cell-based
Excerpt: as §2

CXCR2 [4] = molecular target: T1, CXCR2; experiment: CXCR2 internalization assay in HEK293-CXCR2 transfectants (FACS); format: cell-based; details: stable HEK293 transfectants
Procedure: CXCR internalization assays. […] Internalization was calculated relative to surface expression of buffer-treated cells (100% control) and isotype control staining (0% control): geometric MFI[experimental]−MFI[0% control]/MFI[100% control]−MFI[0% control]×100.

neutrophil recruitment = experiment: Model of acute MIF-induced peritonitis; format: in vivo, mouse; details: after 4 h, mice with wild-type bone marrow
Procedure: Model of acute peritonitis. […] After 4 h, peritoneal Iavage was performed and Gr-1^+CD115^−F4/80^− neutrophils were quantified by flow cytometry using the relevant conjugated antibodies.

[5] = tested on: leukocyte adhesion and emigration in postcapillary venules; experiment: Cremaster microcirculation model, intravital microscopy; format: in vivo, mouse; details: MIF injected adjacent to the cremaster muscle
Procedure: Cremaster microcirculation model. […] After 4 h, intravital microscopy (Zeiss Axioplan; 20×) was performed in postcapillary venules (Gregory, J. L., et al. (2004) Arthritis Rheum. 50, 3023-3034; Keane, M. P., et al. (2004) J. Immunol. 172, 2853-2860). Adhesion was measured as leukocytes stationary for more than 30 s, emigration as the number of extravascular leukocytes per field.

primary human monocytes [6] = experiment: Transwell chemotaxis of primary monocytes toward MIF; format: cell-based
Procedure: as §1

primary human monocytes [7] = experiment: Arrest of primary monocytes on MIF-pretreated human aortic endothelial cells under flow; format: cell-based; details: aortic endothelial cells pretreated with recombinant MIF for 2 h
Procedure: Adhesion assays. Arrest of calcein-AM (Molecular Probes)-labeled monocytes, T cells and L1.2 transfectants was quantified in parallel-wall chambers in flow (1.5 dynes/cm^2, 5 min) (Schober, A., et al. (2004) Circulation 109, 380-385; Osterman, G., et al. (2002) Nat. Immunol. 3, 151-158; Weber, C., et al. (1996) J. Cell Biol. 134, 1063-1073).

CCR5 = molecular target: T2, CCR5 (Homo sapiens, UniProt P51681); experiment: CCR5 internalization in L1.2 CCR5 transfectants; format: cell-based; details: data not shown
T2 construct: host or cells: L1.2 (mouse pre-B lymphoma) cells
T2 sequence (P51681 whole entry): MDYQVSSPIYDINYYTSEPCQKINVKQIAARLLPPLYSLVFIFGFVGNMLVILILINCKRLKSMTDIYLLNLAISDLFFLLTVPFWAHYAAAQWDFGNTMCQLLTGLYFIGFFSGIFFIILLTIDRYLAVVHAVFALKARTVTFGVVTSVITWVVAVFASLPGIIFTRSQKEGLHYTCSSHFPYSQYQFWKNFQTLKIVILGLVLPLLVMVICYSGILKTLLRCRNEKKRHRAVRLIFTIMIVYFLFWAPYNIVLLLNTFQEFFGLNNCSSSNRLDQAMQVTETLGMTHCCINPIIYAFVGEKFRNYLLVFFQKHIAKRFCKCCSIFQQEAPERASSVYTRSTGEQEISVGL

Sequence of CXCR4 (P61073 whole entry): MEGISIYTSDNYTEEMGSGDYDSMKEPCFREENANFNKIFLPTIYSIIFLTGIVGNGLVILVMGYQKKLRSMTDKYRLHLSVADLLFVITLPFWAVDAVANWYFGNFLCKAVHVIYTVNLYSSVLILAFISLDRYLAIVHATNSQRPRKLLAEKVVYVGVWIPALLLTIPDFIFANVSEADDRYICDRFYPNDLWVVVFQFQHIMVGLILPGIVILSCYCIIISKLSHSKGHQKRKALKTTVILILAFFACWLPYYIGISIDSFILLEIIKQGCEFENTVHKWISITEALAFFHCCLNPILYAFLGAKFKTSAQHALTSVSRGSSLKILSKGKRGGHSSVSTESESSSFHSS

Molecule: c1ccc(CNCc2ccc(CN3CCCNCCNCCCNCC3)cc2)nc1 [AMD3465]
- specific binding of fluorescein-MIF to CXCR4-bearing Jurkat cells (CXCR4): inhibited

B1: MIF: Recombinant macrophage migration inhibitory factor, expressed and purified as described (Bernhagen 1993) (protein)
chain: PMFIVNTNVPRASVPDGFLSELTQQLAQATGKPPQYIAVHVVPDQLMAFGGSSEPCALCSLHSIGKIGGAQNRSYSKLLCGLLAERLRISPDRVYINYYDMNAANVGWNNSTFA
- T-cell transmigration [1]: dose-dependently induced transmigration
- calcium influx (CXCR2 [2]): dose-dependently induced calcium influx
- calcium influx [3]: induced calcium influx
- CXCR2 internalization (surface CXCR2 by FACS) (CXCR2 [4]): induced CXCR2 internalization
- neutrophil recruitment after intraperitoneal injection (neutrophil recruitment): elicited neutrophil recruitment
- leukocyte adhesion and emigration in postcapillary venules [5]: marked increase
- MIF concentration that induced optimal chemotaxis (primary human monocytes [6]): 2 to 4 nM
- optimum of bell-shaped dose-response curve of induced monocyte migration (primary human monocytes [6]; MIF in lower chamber, primary human PBMC-derived monocytes): 25 to 50 ng/mL
- arrest of primary human monocytes under flow conditions (primary human monocytes [7]): substantially increased the arrest
- CCR5 internalization (CCR5): unable to induce CCR5 internalization
